Reference: PMC9001978, “Determining the Effects of Differential Expression of GRKs and β-arrestins on CLR-RAMP Agonist Bias” (Frontiers in Physiology, 2022)

B1: β-arrestin1-YFP (natural protein, UniProt P49407 1-418, looked up)
chain: MGDKGTRVFKKASPNGKLTVYLGKRDFVDHIDLVDPVDGVVLVDPEYLKERRVYVTLTCAFRYGREDLDVLGLTFRKDLFVANVQSFPPAPEDKKPLTRLQERLIKKLGEHAYPFTFEIPPNLPCSVTLQPGPEDTGKACGVDYEVKAFCAENLEEKIHKRNSVRLVIRKVQYAPERPGPQPTAETTRQFLMSDKPLHLEASLDKEIYYHGEPISVNVHVTNNTNKTVKKIKISVRQYADICLFNTAQYKCPVAMEEADDTVAPSSTFCKVYTLTPFLANNREKRGLALDGKLKHEDTNLASSTLLREGANREILGIIVSYKVKVKLVVSRGGLLGDLASSDVAVELPFTLMHPKPKEEPPHREVPENETPVDTNLIELDTNDDDIVFEDFARQRLKGMKDDKEEEEDGTGSPQLNNR
notes: β-arrestin1 with an in-frame C-terminal YFP (Mackie et al., 2019); source: HEK293T, transfected, in living cells; not shown: YFP, C-terminal, kept

How the values were obtained:
[1] = molecular target: T1, CLR-Nluc in complex with FLAG-RAMP1 (CGRP receptor) (UniProt Q16602 23-461; O60894 27-148)
T1 construct: calcitonin-like receptor (CLR), direct C-terminal in-frame fusion to NanoLuc, in pcDNA3.1(-); receptor activity modifying protein 1 (RAMP1), pcDNA3.1(+)FLAG-RAMP, described in Weston et al., 2016 and Harris et al., 2021; Harris et al., 2021; also called CLR-RAMP1; calcitonin-like receptor with receptor activity modifying protein 1; source: HEK293T, transfected, in living cells; not shown: …

[2] = molecular target: T2, CLR-Nluc in complex with FLAG-RAMP2 (adrenomedullin 1 receptor) (UniProt Q16602 23-461; O60895 43-175); test: FRET or BRET; living HEK293T cells transfected with CLR-Nluc (donor), FLAG-RAMP1/2/3 and β-arrestin1/2-YFP (acceptor); 5 μM coelenterazine-h; stimulated with AM, 1 μM to 10 pM; BRET ratio 460/530 nm read for at least 20 min; conditions: partners not purified
T2 construct: calcitonin-like receptor (CLR), direct C-terminal in-frame fusion to NanoLuc, in pcDNA3.1(-); receptor activity modifying protein 2 (RAMP2), pcDNA3.1(+)FLAG-RAMP, described in Weston et al., 2016 and Harris et al., 2021; Harris et al., 2021; also called CLR-RAMP2; AM1R; source: HEK293T, transfected, in living cells; not shown: NanoLuc, C-terminal, kept; FLAG, N-terminal, kept
T2 sequence (Q16602 23-461, chain 1 of 2): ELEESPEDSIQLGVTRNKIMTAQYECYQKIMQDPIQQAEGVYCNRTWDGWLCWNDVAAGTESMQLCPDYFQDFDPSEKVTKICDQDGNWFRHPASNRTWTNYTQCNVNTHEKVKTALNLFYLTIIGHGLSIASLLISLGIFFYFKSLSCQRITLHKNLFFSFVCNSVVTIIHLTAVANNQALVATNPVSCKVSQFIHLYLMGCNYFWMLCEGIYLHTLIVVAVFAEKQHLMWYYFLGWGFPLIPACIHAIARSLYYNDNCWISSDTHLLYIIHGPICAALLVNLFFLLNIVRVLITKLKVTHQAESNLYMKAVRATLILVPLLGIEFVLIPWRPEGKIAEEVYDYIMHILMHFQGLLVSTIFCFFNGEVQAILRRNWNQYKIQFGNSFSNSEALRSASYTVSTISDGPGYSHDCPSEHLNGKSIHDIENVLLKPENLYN
T2 sequence (O60895 43-175, chain 2 of 2): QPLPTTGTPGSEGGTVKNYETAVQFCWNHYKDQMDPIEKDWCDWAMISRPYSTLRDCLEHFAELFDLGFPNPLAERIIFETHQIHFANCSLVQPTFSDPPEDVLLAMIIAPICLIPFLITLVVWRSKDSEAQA

T1 sequence (Q16602 23-461, chain 1 of 2): as the sequence (Q16602 23-461, chain 1 of 2) above
T1 sequence (O60894 27-148, chain 2 of 2): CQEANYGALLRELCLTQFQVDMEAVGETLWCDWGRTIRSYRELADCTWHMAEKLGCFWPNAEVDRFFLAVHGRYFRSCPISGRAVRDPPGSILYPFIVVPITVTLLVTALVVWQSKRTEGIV

Molecule	cAMP accumulation, Emax, cells pretreated with DMSO (vehicle) (% of the response to 100 μM forskolin) [1]	cAMP accumulation, Emax, cells pretreated with barbadin (% of the response to 100 μM forskolin) [1]	cAMP accumulation, pEC50, cells pretreated with DMSO (vehicle) [1]	cAMP accumulation, pEC50, cells pretreated with barbadin [1]	pEC50 of AM for recruitment (BRET) [2]
adrenomedullin 2 (from UniProt Q7Z4H4 101-148) (peptide)	79.8	47.2	6.34	4.93	
B1					7.57 ± 0.17
